# Reference: patent US10799584B2, “Combination therapies using agents that target tumor-associated stroma or tumor cells and alkylating agents” (BIOMED VALLEY DISCOVERIES, INC., priority 2014, dated 2020)
# B1: M830: TEM8 monoclonal antibody (hIgG1), VH SEQ ID NO:5, VL SEQ ID NO:6 (antibody, V domains shown)
# VH: EVQLVESGGGVVQPGRSVRLSCAASGFTFSTYTMHWVRQAPGKGLEWVAIISNDGSNKYYADPVRGRFTISRDNSKNTLYLQMNSLRAEDTAVYYCVRGSSWYRGNWFDPWGQGTLVTVSS
# VL: DIQMTQSPSSLSASVGDRVTIACRASQTISRYLNWYQQKPGKAPKLLIYAASSLQSGVSSRFSGSGSGTEFTLTISSLQPEDFATYFCQQTYSPPITFGQGTRLEIKR
# modifications: TEM830 mAb VH; TEM830 mAb VL
# Legend:
# H460 tumors = assay: H460 xenograft model, M830 with gemcitabine, cisplatin or radiation; format: in vivo, nude mice; conditions: endpoint 2000 mm^3 or Day 58; logrank
# Source text: (§1) The statistical tests were not adjusted for multiple comparisons.
# Treatment began on Day 1 in eight groups of nude mice (n=10) with established subcutaneous H460 tumors of 75-126 mm^3. […] The study endpoint was a tumor volume of 2000 mm^3 or the final day, Day 58, whichever came first. […] The median TTE for controls was 15.6 days, establishing a maximum possible TGD of 42.4 days (272%) for the 58-day study.
# HCT116 tumor cells = assay: HCT116 colorectal carcinoma xenograft model, TEM8 antibodies; format: in vivo, mice; conditions: HCT116 Colon; no combination partner; M830 IP 3 times per week; start at 60-80 mm^3
# Description: Tumor cells were cultured in RPMI-1640 medium supplemented with 10% fetal bovine serum, 2 mM glutamine, 100 units/mL penicillin G sodium, 100 μg/mL streptomycin sulfate, and 25 μg/mL gentamicin. The tumor cells were grown in tissue culture flasks in a humidified incubator at 37° C., in an atmosphere of 5% CO2 and 95% air.
# 2.5×10^6 to 5×10^6 HCT116 tumor cells were injected subcutaneously into the flank of mice. Tumor weights were calculated following surgical removal. Treatment was initiated when tumor volume reached 60-80 mm^3. Dosing volume was 10 mL/kg (0.2 mL/20 g mouse).
# TEM8 Ab (hIgG1) doses were 5 and 15 mg/kg, three times per week, for 3 weeks. Bevacizumab was dosed at 5 mg/kg, twice per week, for 3 weeks. FIG. 1B and FIG. 1D show mean tumor growth and percent body weight change for each group, respectively, over the time course of the study.
# H460 cells = assay: H460 non-small cell lung carcinoma xenograft model, M830 with bevacizumab or paclitaxel; format: in vivo, athymic nude mice; conditions: for % Tumor Reduction vs. combination partner at Day (#): Day 32
# Description: Animals were monitored for regression responses.
# as §1
# Cultured H460 cells were harvested during exponential growth and resuspended in phosphate buffered saline at a concentration of 1×10^8 cells/mL. 1.0×10^7 tumor cells were injected subcutaneously into the flank of athymic nude mice. Animals were euthanized when tumors reached the pre-determined volume endpoint of 2000 mm^3 or on the final day (Day 88), whichever came first.
# DLD-1 tumor cells = assay: DLD-1 colorectal adenocarcinoma xenograft model, first study; format: in vivo, mice; conditions: DLD1 Colon, Day 21
# Description: Tumor weights were calculated following surgical removal. […] Irinotecan was given once per week at 60 mg/kg i.v. and bevacizumab was dosed at 5 mg/kg i.p., three times per week.
# [1] = combination partner Bevacizumab
Molecule,outcome (survival) compared to vehicle-treated controls (H460 tumors),% Tumor Reduction vs. Vehicle at Day 21 (HCT116 tumor cells),% Tumor Reduction vs. combination partner at Day (#) (H460 cells; [1]),"% Tumor Reduction vs. Vehicle at Day 21 (H460 cells; combination partner Bevacizumab, M830 IP 3 times per week)",regression (vs. Vehicle at Day 21) (H460 cells; combination partner Paclitaxel),% Tumor Reduction vs. combination partner at Day (#) (H460 cells; combination partner Paclitaxel),% Tumor Reduction vs. combination partner at Day (#) (DLD-1 tumor cells; [1]),% Tumor Reduction vs. combination partner at Day (#) (DLD-1 tumor cells; combination partner Irinotecan)
Nc1ccn([C@@H]2O[C@H](CO)[C@@H](O)C2(F)F)c(=O)n1 [gemcitabine],not statistically different,,,,,,,
"N.N.[Cl][Pt][Cl] [Cisplatin, cisplatin]",statistically significant survival benefit,,,,,,,
B1,not statistically different,39.5%^,58.5%,94.5%^,(−61%,94%,48%,53%
